In publication PMC10304631 (Pharmaceutics, 2023):

Tests used:
[1] = predicted log P; ref Drugbank.com and pubchem.ncbi.nlm.nih.gov (accessed on 3 January 2023); cited from earlier work
[2] = tested on: Caco-2 cells; experiment: PEN-mediated uptake of TAMRA-insulin by confocal microscopy (CLSM); format: cell-based, human; details: undifferentiated Caco-2 cells; 5 µM TAMRA-insulin alone, pH 7.4, 1 h
[3] = tested on: Caco-2 cells; experiment: PEN-mediated uptake of TAMRA-insulin by flow cytometry; format: cell-based, human; details: 5 µM TAMRA-insulin alone or with 20 µM PEN, 1 h, 37 °C, mean ± SD, N = 2, n = 3
Method: The controls were incubated with a buffer without CPP or insulin. The cells were kept on a shaking table (37 °C, 50 rpm) for 1 h. Hereafter, the test solutions were removed, and the cells were washed twice with cold phosphate-buffered saline (4 °C) and trypsinized for 10–15 min. Trypsinization was terminated by the addition of excess cold hHBSS (4 °C) containing 10% (v/v) FBS (hHBSS/FBS). The cells were then collected and centrifuged at 4000 rpm (1076× g, 4 °C). The supernatant was removed, and the cells were washed once with hHBSS/FBS and centrifuged again at the same conditions before suspension in hHBSS/FBS containing 0.3% (v/v) DRAQ7 as a marker of the plasma membrane’s integrity. To quench extracellular plasma membrane-associated fluorescence, a parallel experiment was performed using the same test solutions, with the addition of trypan blue (TB) at a final concentration of 0.1% (v/v) just prior to analysis.

OC[C@@H](O)[C@@H](O)[C@H](O)[C@H](O)CO [Mannitol]
Log P [1]: −3.7

TAMRA-Insulin: insulin labeled with TAMRA (5/6-carboxy-tetramethyl-rhodamine succinimidyl ester)
Uptake of TAMRA-insulin (CLSM) [2]: uptake was absent
MFI (A.N.) of TAMRA-insulin ([3]; pH 6.5, with Trypan Blue (0.1% v/v)): 49.6 ± 1.9 A.N.
MFI (A.N.) of TAMRA-insulin ([3]; pH 7.4, with Trypan Blue (0.1% v/v)): 40.8 ± 2.6 A.N.
MFI (A.N.) of TAMRA-insulin ([3]; pH 7.4, without Trypan Blue): 41.2 ± 2.9 A.N.

Vancomycin
Log P [1]: −4.4
